Patent publication US20150232568A1 (published 2015)
Substitutions are numbered along the chain they refer to.

T1: murine Jag2-DSL-EGF1-4 (M27-E388) (UniProt Q9QYE5 27-388)
T1 chain: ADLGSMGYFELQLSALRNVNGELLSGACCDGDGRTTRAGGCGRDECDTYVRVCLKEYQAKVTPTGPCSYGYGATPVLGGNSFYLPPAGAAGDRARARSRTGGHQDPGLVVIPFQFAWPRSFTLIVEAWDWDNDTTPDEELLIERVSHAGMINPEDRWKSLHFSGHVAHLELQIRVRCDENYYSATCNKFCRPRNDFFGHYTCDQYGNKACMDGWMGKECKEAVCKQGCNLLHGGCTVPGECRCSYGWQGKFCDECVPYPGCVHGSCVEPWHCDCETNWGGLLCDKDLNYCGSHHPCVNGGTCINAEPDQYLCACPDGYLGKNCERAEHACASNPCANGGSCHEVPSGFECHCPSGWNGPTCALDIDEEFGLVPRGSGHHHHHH

T2: human Jag2-DSL-EGF1-4 (R2-E388) (UniProt Q9Y219 24-388)
T2 chain: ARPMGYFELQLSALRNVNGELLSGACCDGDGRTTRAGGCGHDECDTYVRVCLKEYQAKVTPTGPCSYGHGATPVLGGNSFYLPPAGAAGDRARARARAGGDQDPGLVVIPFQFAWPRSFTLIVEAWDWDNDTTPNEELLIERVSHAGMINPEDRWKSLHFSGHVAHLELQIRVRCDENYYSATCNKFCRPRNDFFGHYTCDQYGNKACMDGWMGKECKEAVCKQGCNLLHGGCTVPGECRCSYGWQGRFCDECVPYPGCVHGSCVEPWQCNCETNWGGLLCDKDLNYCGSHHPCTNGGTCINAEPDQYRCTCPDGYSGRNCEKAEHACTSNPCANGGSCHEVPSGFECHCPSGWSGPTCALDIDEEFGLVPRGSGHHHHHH

B1: C-1 (antibody, V domains shown)
VH: EVQLVESGGGLVQPGGSLRLSCAASGFTFTNSDIHWVRQAPGKGLEWVGGITPADGYTDYADSVKGRFTISADTSKNTAYLQMNSLRAEDTAVYYCARSYWSSSPGSAFDYWGQGTLVTVSS
VL: DIQMTQSPSSLSASVGDRVTITCRASQDVSTAVAWYQQKPGKAPKLLIYSASFLYSGVPSRFSGSGSGTDFTLTISSLQPEDFATYYCQQSYISPSTFGQGTKVEIK
B2: A-2 (antibody, V domains shown)
VH: EVQLVESGGGLVQPGGSLRLSCAASGFTFSNYGIHWVRQAPGKGLEWVGWITGNGGYSDYADSVKGRFTISADTSKNTAYLQMNSLRAEDTAVYYCARAGSWFAYWGQGTLVTVSS
VL: B1 VL with I93T, S94T, S96P
B3: A (antibody, V domains shown)
VH: B2 VH with G53P, N54D, S58T
VL: B1 VL with I93T, S94T, S96P
B4: C (antibody, V domains shown)
VH: B1 VH with S102N, S103N, A108G
VL: B1 VL with I93T, S94T, S96P
B5: D-1 (antibody, V domains shown)
VH: EVQLVESGGGLVQPGGSLRLSCAASGFTFTSNYMSWVRQAPGKGLEWVSTIWYQSGTTDYADSVKGRFTISADTSKNTAYLQMNSLRAEDTAVYYCARDSPWPSKGFGMDVWGQGTLVTVSS
VL: DIQMTQSPSSLSASVGDRVTITCRASQSISSYLAWYQQKPGKAPKLLIYGASSRASGVPSRFSGSGSGTDFTLTISSLQPEDFATYYCQQYLSSPITFGQGTKVEIK
B6: D (antibody, V domains shown)
VH: B5 VH with D99S, P103S, S104G, K105E
VL: B5 VL with L92Y, I96L
B7: D-2 (antibody, V domains shown)
VH: B5 VH with T28S, F29V, T30K, S31P, N32M, S35T, D99S, P103S, S104G, K105E
VL: B5 VL with L92S, I96L
B8: B-2 (antibody, V domains shown)
VH: EVQLVESGGGLVQPGGSLRLSCAASGFTFTSYDIHWVRQAPGKGLEWVGGISPADGDTDYANSVKGRFTISADTSKNTAYLQMNSLRAEDTAVYYCARNDYDVRSVGSGMDYWGQGTLVTVSS
VL: B1 VL with Y92W, I93T, S94A, S96P
B9: B-1 (antibody, V domains shown)
VH: B8 VH with S105T
VL: B1 VL with I93T, P95A, S96P
B10: B-3 (antibody, V domains shown)
VH: B8 VH with S105F
VL: B1 VL with Y92F, I93T, S94A, S96P
B11: B (antibody, V domains shown)
VH: B8 VH
VL: B1 VL with I93T, S94T, S96P

target: human Jag1-DSL-EGF1-4 (UniProt P78504 34-377); assay: Biacore (SPR)

Kd [nM] | Binder
0.31 | B1
0.3 | B2
94 | B3
2.3 | B4
0.52 | B5
13 | B6
1.1 | B7

Target: T1, murine Jag2-DSL-EGF1-4 (M27-E388)
Assay: Biacore (SPR)

Kd [nM] | Binder
0.73 | B1
0.0025 | B8
1.1 | B9
0.3 | B10
1 | B11
14 | B5

Target: T2, human Jag2-DSL-EGF1-4 (R2-E388)
Assay: Biacore (SPR)

Kd [nM] | Binder
0.12 | B1
1 | B11
4.6 | B5
